Measurements as given in patent US20240026004A1.

What was measured:
human TGF-β1 (human) = human TGF-β1 (human) (UniProt P01137); test: ELISA, TGF-β1 coated at 0.5 µg/ml, HRP anti-human IgG detection, OD450
human TGF-β3 (human) = human TGF-β3 (human) (UniProt P10600); test: ELISA, TGF-β3 coated at 0.5 µg/ml, HRP anti-human IgG detection, OD450
[1] = molecular target: human PD-L1 on CHO-K1 cells (human) (UniProt Q9NZQ7); test: flow cytometry on CHO-K1 cells overexpressing human PD-L1, PE anti-human IgG detection, median fluorescence intensity
human PD-L1 on CHO-K1 cells (human), sequence (Q9NZQ7 19-290): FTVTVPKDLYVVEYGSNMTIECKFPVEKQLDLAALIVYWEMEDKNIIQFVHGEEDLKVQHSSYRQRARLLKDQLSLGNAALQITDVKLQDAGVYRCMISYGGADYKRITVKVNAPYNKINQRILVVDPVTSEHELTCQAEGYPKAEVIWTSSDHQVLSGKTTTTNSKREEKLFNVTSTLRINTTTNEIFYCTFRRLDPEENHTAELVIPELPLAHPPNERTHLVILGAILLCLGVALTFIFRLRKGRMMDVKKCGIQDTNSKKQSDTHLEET

[2] = molecular target: human PD-L1 on CHO-K1 cells (human) (UniProt Q9NZQ7); test: dual-target flow cytometry: sample pre-mixed with 3 µg/ml human TGF-β1, then CHO-K1 cells overexpressing human PD-L1, detection with PE anti-human TGF-β1 antibody (signal needs PD-L1 and TGF-β1 bound at once)

human TGF-β3 (human), sequence (P10600 301-412 limits assumed): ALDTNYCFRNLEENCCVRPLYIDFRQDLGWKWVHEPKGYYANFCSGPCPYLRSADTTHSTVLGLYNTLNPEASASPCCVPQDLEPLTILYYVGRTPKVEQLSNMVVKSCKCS
human TGF-β1 (human), sequence (P01137 279-390 limits assumed): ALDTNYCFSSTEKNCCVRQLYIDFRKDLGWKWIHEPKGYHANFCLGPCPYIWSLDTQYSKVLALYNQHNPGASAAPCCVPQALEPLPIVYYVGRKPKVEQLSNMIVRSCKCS

“900544 (control drug M7824 from Merck, expressed in-house) (bispecific antibody)” showed an EC50 (human TGF-β1 (human)) of 0.598 nM, an EC50 (human TGF-β3 (human)) of 1.12 nM and an EC50 [1] of 1.43 nM. The EC50 [2] was 0.788 nM.
